# Key:
# Test in all cases: Kd (EC50 corrected by depletion factor)
# DHX9 = DHX9 (UniProt Q08211)
# Experimental: (§1)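 Competition-binding assay: HEK293-FT cell lysate (2.5 mg protein) pre-incubated 1 h at 4°C with free motif-containing RNA oligos (0 to 30 µM, 12 doses), then pulled down with the same 5'-amino-C6 RNA oligos immobilised on NHS-Sepharose beads (30 min, 4°C). Bound proteins were quantified by label-free LC-MS/MS and normalised to the water control. EC50 came from a four-parameter log-logistic fit; Kd = EC50 x depletion factor. Random/reversed control probes are dropped.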
# NKRF = target: T1, NKRF (UniProt O15226)
# T1 sequence: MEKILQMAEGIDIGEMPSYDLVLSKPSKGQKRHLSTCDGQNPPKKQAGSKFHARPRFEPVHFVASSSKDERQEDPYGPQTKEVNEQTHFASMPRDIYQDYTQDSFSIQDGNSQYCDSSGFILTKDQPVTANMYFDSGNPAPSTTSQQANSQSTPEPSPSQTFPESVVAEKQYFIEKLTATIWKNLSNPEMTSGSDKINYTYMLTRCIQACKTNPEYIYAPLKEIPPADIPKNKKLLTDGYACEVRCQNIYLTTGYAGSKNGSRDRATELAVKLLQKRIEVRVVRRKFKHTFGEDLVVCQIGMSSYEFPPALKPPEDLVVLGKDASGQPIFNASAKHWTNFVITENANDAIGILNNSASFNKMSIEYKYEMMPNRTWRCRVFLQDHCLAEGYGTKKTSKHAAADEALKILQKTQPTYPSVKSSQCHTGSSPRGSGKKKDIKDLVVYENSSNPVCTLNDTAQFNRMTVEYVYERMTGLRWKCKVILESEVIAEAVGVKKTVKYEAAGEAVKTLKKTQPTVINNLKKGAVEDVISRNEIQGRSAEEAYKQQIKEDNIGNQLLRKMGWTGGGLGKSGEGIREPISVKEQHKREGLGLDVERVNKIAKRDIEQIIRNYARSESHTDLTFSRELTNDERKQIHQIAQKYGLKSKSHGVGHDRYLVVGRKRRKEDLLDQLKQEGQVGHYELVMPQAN
# Experimental: as §1
# SSB = target: T2, SSB (UniProt P05455)
# T2 sequence: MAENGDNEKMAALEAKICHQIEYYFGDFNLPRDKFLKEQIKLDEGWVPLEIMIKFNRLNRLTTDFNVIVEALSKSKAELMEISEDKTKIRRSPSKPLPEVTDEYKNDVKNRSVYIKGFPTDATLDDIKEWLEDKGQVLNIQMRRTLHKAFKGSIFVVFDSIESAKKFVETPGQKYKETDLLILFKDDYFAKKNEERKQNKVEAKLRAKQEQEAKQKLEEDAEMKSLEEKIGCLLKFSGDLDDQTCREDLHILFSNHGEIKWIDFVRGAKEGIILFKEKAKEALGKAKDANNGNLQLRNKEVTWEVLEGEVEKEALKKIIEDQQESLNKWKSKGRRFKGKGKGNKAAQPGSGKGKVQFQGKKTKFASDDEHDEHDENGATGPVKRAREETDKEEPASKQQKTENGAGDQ
# Experimental: as §1
# RTCA = target: T3, RTCA (UniProt O00442)
# T3 sequence: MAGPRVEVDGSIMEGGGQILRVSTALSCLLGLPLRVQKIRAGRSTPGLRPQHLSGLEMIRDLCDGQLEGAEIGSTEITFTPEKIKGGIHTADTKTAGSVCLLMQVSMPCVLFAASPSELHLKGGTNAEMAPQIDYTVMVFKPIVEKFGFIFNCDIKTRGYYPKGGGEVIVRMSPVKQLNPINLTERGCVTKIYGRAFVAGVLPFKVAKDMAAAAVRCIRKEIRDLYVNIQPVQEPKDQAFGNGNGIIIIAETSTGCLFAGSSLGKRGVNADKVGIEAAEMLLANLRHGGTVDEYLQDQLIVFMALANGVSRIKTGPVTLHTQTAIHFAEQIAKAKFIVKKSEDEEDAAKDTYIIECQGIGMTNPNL
# Experimental: as §1
# ZC3HAV1 = ZC3HAV1 (UniProt Q7Z2W4)
# Experimental: as §1
# CELF1 = target: T4, CELF1 (UniProt Q92879)
# T4 sequence: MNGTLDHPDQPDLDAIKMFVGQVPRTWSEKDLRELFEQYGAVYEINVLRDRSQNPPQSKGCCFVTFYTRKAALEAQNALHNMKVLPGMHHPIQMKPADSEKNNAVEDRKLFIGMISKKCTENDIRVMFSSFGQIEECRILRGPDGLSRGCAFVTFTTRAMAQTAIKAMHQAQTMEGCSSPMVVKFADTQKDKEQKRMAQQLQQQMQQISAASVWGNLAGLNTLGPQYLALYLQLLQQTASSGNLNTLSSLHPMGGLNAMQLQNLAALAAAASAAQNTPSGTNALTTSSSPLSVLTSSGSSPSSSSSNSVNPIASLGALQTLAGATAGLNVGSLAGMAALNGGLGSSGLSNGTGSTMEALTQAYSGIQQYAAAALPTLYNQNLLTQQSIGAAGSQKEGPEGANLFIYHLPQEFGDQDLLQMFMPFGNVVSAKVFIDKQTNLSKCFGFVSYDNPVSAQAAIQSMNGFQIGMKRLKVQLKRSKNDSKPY
# Experimental: as §1
# ZC3HAV1, sequence (Q7Z2W4 whole entry): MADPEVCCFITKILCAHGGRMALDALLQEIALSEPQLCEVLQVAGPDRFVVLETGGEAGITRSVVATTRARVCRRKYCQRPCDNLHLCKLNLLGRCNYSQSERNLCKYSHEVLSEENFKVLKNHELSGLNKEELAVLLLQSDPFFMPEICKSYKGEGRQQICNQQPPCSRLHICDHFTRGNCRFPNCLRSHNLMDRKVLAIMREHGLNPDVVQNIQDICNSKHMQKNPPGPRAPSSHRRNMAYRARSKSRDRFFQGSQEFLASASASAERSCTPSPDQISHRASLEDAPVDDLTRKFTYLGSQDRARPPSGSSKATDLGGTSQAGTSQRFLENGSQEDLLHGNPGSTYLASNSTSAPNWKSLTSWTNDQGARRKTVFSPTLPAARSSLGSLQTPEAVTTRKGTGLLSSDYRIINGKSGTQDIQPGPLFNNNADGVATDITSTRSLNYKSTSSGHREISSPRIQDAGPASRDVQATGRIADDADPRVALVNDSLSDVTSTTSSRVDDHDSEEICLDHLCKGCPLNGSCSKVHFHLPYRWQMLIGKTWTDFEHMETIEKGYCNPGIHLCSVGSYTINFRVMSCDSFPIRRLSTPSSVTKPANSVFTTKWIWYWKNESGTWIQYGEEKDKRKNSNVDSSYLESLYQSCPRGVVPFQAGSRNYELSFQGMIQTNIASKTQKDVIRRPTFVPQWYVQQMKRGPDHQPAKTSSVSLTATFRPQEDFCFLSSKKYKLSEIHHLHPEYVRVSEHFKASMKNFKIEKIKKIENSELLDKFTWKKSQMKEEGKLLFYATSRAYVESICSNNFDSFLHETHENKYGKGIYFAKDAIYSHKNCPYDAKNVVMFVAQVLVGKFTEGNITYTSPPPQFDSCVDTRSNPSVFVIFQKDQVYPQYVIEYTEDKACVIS
# DHX9, sequence (Q08211 whole entry): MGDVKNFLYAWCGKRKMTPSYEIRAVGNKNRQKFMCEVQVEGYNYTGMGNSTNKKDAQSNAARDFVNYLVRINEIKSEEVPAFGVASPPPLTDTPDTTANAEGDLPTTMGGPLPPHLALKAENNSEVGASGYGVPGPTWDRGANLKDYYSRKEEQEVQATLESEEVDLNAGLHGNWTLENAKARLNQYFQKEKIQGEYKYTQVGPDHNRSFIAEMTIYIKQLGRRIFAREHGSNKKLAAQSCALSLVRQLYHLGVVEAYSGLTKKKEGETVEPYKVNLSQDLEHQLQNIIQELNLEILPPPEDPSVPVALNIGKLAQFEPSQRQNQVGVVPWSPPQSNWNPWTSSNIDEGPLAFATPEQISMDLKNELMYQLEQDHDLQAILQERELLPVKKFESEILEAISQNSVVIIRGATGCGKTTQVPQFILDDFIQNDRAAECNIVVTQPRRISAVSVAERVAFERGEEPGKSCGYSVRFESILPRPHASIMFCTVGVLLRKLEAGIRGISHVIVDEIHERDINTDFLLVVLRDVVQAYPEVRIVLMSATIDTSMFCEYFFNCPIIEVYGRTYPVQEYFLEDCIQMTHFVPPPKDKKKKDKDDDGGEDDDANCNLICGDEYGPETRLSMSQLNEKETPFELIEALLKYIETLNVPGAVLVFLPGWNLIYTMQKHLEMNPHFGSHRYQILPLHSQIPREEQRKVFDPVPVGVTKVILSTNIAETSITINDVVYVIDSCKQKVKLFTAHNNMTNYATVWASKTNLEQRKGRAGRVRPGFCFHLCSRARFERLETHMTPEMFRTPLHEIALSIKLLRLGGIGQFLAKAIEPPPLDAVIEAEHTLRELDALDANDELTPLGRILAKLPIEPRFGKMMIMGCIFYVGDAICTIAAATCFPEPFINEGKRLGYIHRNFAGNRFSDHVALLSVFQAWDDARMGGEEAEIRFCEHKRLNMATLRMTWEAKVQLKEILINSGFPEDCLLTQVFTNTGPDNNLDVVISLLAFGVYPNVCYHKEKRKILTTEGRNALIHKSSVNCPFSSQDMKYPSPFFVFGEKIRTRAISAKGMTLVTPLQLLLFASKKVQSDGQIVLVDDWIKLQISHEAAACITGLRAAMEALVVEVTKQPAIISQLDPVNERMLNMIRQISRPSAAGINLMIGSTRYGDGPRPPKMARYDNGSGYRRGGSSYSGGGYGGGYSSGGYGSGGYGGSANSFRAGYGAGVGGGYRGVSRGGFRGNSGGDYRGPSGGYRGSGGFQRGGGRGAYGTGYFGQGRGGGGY
Sequence,Kd (DHX9),Kd (NKRF),Kd (SSB),Kd (RTCA),Kd (ZC3HAV1),Kd (CELF1)
UAUUUAU,1230 nM,223 nM,289 nM,273 nM,4310 nM,350 nM
AAUAAA,1840 nM,222 nM,365 nM,81.1 nM,776 nM,162 nM
CUGUCCU,155 nM,298 nM,1060 nM,990 nM,867 nM,3660 nM

# Source: the supplement of paper PMC6379048
